# In article doi:10.1101/2024.12.09.627598:
# Molecular target: TLR5^N14, a truncated human TLR5 construct containing only the D1-domain binding sites (human) (UniProt O60602)
# Assay: SPR
# Sequence of UniProt O60602 (O60602 21-639): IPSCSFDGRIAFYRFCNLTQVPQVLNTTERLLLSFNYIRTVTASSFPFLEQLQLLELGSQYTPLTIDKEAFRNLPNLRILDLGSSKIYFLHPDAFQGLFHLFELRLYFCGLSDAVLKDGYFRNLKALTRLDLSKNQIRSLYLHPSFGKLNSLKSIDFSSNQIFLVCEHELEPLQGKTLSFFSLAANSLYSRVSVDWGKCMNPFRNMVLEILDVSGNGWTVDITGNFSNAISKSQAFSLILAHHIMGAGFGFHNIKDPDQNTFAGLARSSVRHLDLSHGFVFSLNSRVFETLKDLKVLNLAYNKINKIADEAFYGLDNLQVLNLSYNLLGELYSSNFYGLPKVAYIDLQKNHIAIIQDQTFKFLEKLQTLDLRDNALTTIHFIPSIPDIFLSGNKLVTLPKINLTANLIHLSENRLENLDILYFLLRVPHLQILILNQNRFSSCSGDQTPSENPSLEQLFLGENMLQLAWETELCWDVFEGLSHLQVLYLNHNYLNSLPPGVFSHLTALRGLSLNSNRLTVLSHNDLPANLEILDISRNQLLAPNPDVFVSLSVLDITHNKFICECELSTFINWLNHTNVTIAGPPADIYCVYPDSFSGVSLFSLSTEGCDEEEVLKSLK
Substance,kon,Kd,koff
"RhFlaB, flagellin FlaB of Roseburia hominis, wild type (recombinant) (from UniProt G2T5W2 1-506) (natural protein)",45200 M⁻¹ s⁻¹,11.4 nM,0.000555 s⁻¹
"StFliC, flagellin FliC of Salmonella enterica serovar Typhimurium, wild type (from UniProt P06179 1-495) (natural protein)",11300 M⁻¹ s⁻¹,16.3 nM,0.000192 s⁻¹
"StFliC-PIM, primary interface mutant of StFliC (Q89A, R90A, Q97A) (natural protein)",18800 M⁻¹ s⁻¹,585 nM,0.011 s⁻¹

# The next lines start with results.
kon,Substance,Kd,koff
9090 M⁻¹ s⁻¹,"RhFlaB-PIM, primary interface mutant of RhFlaB (Q88A, R89A, Q96A) (from UniProt G2T5W2 1-506) (natural protein)",78 nM,0.000691 s⁻¹
75500 M⁻¹ s⁻¹,"RhFlaB-ΔD0, RhFlaB truncated to remove the D0 domain (domain or fragment)",,
